{
  "source": "patent US20220090012A1",
  "about": "(CRISPR THERAPEUTICS, published 2022)",
  "molecular_target": "T1, recombinant biotinylated human BCMA (human, UniProt Q02223 1-54, biotinylated (site not stated); detected with streptavidin-APC)",
  "T1 construct": "Staining reagent; also called recombinant biotinylated BCMA/streptavidin-APC conjugate",
  "T1 sequence (looked up)": "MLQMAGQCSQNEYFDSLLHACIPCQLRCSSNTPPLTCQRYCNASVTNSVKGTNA",
  "assay": "flow cytometry; edited T cells carrying the CAR stained with recombinant biotinylated human BCMA and streptavidin-APC",
  "excerpt": "Flowcytometry was used to verify the editing for TRAC, β2M and the insertion and expression of anti-BCMA CAR. Briefly, about one week post electroporation, cells were stained with anti-human TCR, anti-human β2M and recombinant biotinylated human BCMA/streptavidin-APC to assess the levels of editing for TRAC and β2M, and insertion of the nucleotide sequence encoding anti-BCMA CAR.\nTRAC−/β2M−, TRAC−/β2M−/Reg-1−, TRAC−/β2M−/TGFBRII− and TRAC−/β2M−/Reg-1−/TGFBRII− anti-BCMA CAR+ T-cells show consistent rates of TCR and β2M disruptions at >90% and >60% rates, respectively as determined by flow cytometry (FIGS. 23A and 23B). Anti-BCMA CAR expression was measured flow cytometrically by determining the percentage of cells that bound recombinant biotinylated BCMA/streptavidin-APC conjugate. All the conditions including TRAC−/β2M−, TRAC−/β2M−/Reg-1−, TRAC−/β2M−/TGFBRII− and TRAC−/β2M−/Reg-1−/TGFBRII− anti-BCMA CAR+ T-cells show consistent rates of CAR insertion (>70%), while the unedited RNP− T-cells have no detectable staining for anti-BCMA CAR (FIG. 23C).",
  "data": [
    {"binder": "anti-BCMA CAR (BCMA CAR amino acid sequence) (other, also called anti-BCMA chimeric antigen receptor) QVQLVQSGAELKKPGASVKVSCKASGNTLTNYVIHWVRQAPGQRLEWMGYILPYNDLTKYSQKFQGRVTITRDKSASTAYMELSSLRSEDTAVYYCTRWDWDGFFDPWGQGTTVTVSSGGGGSGGGGSGGGGSEIVMTQSPATLSVSPGERASISCRASQSLVHSNGNTHLHWYQQRPGQAPRLLIYSVSNRFSEVPARFSGSGSGTDFTLTISSVESEDFAVYYCSQTSHIPYTFGGGTKLEIKSAAAFVPVFLPAKPTTTPAPRPPTPAPTIASQPLSLRPEACRPAAGGAVHTRGLDFACDIYIWAPLAGTCGVLLLSLVITLYCNHRNRKRGRKKLLYIFKQPFMRPVQTTQEEDGCSCRFPEEEEGGCELRVKFSRSADAPAYQQGQNQLYNELNLGRREEYDVLDKRRGRDPEMGGKPRRKNPQEGLYNELQKDKMAEAYSEIGMKGERRRGKGHDGLYQGLSTATKDTYDALHMQALPPR", "values": [
      {"measurement": "binding result", "value": "binds"}
    ]}
  ]
}
